The target in data set [1] is T1, CmWC-3 (zinc-finger domain-containing protein, GATA-type) (Cordyceps militaris, UniProt G3J672 1-188).
T1 sequence: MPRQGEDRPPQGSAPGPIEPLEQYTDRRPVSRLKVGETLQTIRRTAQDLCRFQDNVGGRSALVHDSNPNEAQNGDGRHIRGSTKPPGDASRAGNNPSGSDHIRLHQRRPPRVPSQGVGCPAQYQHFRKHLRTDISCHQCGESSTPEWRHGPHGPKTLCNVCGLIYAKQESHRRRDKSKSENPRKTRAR
The data set is described as follows: EMSA; LightShift EMSA Kit (Thermo 20148); cold competitor 50x; proteins recovered in 1x PBS; binding buffer, salt, pH and temperature not stated. The conditions noted are these: protein: recombinant; tags: GST (pGEX-6P-1); label: biotin on both strands (5'); blunt. A general note: Mobility shift assays separate free from complexed probe on a gel.

Another data set has as its target T2, CmWC-1 (white collar-1) (Cordyceps militaris, UniProt G3J3J5 1-963).
T2 sequence: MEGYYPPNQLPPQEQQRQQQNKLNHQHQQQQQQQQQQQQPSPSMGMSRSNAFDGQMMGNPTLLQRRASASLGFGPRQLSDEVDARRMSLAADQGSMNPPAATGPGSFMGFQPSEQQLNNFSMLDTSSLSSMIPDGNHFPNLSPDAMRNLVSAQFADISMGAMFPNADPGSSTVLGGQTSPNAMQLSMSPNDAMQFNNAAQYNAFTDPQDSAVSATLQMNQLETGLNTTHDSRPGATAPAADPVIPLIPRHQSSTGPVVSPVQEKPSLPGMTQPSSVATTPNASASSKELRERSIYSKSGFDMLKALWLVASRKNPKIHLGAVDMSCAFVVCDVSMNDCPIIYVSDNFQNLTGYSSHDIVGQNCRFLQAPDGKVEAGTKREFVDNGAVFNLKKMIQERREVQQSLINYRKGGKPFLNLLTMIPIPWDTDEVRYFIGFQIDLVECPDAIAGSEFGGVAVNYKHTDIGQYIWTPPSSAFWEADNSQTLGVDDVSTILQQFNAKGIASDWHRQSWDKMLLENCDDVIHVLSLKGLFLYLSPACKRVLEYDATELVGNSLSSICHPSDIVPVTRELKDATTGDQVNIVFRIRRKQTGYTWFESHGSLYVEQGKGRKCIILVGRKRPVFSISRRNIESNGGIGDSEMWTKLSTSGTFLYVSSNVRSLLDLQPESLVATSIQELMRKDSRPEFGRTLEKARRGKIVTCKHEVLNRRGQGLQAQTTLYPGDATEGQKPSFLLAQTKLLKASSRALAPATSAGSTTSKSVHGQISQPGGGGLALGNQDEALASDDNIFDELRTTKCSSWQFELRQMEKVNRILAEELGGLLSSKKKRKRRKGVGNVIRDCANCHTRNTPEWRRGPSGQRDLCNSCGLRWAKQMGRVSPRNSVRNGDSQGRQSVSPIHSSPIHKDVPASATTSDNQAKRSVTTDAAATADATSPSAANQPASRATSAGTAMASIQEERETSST
Described as above. The note with it: protein: recombinant; tags: His (pCOLD I); label: biotin on both strands (5'); blunt.

B1: CmPKS promoter P2 probe (dsDNA)
DNA 1: CGCAGCTGAGGGTATTGATAGCCGTGATCGAACCC
DNA 2: GGGTTCGATCACGGCTATCAATACCCTCAGCTGCG
For the molecule B1, the binding result in data set [1] was “binds”; in the data set with CmWC-1 (white collar-1), “no binding”.

B2: CmPKS promoter P1 probe (dsDNA)
DNA 1: TCATATGATTGTTGATAAATATGTTTTCCCAGTGA
DNA 2: TCACTGGGAAAACATATTTATCAACAATCATATGA
On to B2, for which the binding result in data set [1] is listed as “binds”; with CmWC-1 (white collar-1), “no binding”.
